Test results taken from paper PMC2614558.

Legend:
[1] = biological target: cytoplasmic (C-terminal, soluble) domain of the putative zinc transporter CzrB from Thermus thermophilus, His-tag-free (Thermus thermophilus); experiment: SEC
[2] = biological target: cytoplasmic (C-terminal, soluble) domain of the putative zinc transporter CzrB from Thermus thermophilus, His-tag-free (Thermus thermophilus); experiment: small-angle X-ray scattering
[3] = biological target: cytoplasmic (C-terminal, soluble) domain of the putative zinc transporter CzrB from Thermus thermophilus, His-tag-free (Thermus thermophilus); experiment: small-angle X-ray scattering; remark: listed apart in the source

stoichiometry N [1]: 2
stoichiometry N [2]: 2
stoichiometry N [3]: 2
Substance: cytoplasmic (C-terminal, soluble) domain of the putative zinc transporter CzrB from Thermus thermophilus, His-tag-free (domain or fragment)
